Assay results as given in publication PMC8615523.
Blank lines part the entries; values can stand above or below the substance they belong to.

Experiments:
Assay in all cases: SEC; Ni-NTA eluates injected into a HiLoad 16/60 Superdex 200 pg column; elution with 30 mM Tris-HCl pH 7.4; absorbance at 280 nm
[1] = target: cpmCarmine185-186
[2] = target: cpmMaroon185-186
[3] = target: cpmMaroon196-186

percent monomeric [1]: 60%
Substance: cpmCarmine185-186

stoichiometry N [2]: 2
Substance: cpmMaroon185-186

percent monomeric [3]: 70%
Substance: cpmMaroon196-186
